From patent US6479237 (INSTITUT NATIONAL DE LA SANTE ET DE LA RECHERCHE MEDICALE …, dated 2002)

B1: VP16 fused with p34 (other)
chain: MVSDEDELNLLVIVVDANPIWWGKQALKESQFTLSKCIDAVMVLGNSHLFMNRSNKLAVIASHIQESRFLYPGKNGRLGDFFGDPGNPPEFNPSGSKDGKYELLTSANEVIVEEIKDLMTKSDIKGQHTETLLAGSLAKALCYIHRMNKEVKDNQEMKSRILVIKAAEDSALQYMNFMNVIFAAQKQNILIDACVLDSDSGLLQQACDITGGLYLKVPQMPSLLQYLLWVFLPDQDQRSQLILPPPVHVDYRAACFCHRNLIEIGYVCSVCLSIFCNFSPICTTCETAFKISLPPVLKAKKKKLKVSA
notes: One of the five TFIIH core sub-units put into pVP16 as specificity controls
B2: VP16 alone (not containing any fused protein) (other)
chain: STAPPTDVSLGDELHLDGEDVAMAHADALDDFDLDMLGDGDSPGPGFTPHDSAPYGALDMADFEFEQMFTDALGIDEYGG
notes: Negative control
B3: LexA-Cdk7 (other, UniProt P0A7C2 1-202, looked up)
chain: MKALTARQQEVFDLIRDHISQTGMPPTRAEIAQRLGFRSPNAAEEHLKALARKGVIEIVSGASRGIRLLQEEEEGLPLVGRVAAGEPLLAQQHIEGHYQVDPSLFKPNADFLLRVSGMSMKDIGIMDGDLLAVHKTQDVRNGQVVVARIDDEVTVKRLKKQGNKVELLPENSEFKPIVVDLRQQSFTIEGLAVGVIRNGDWLMALDVKSRAKRYEKLDFLGEGQFATVYKARDKNTNQIVAIKKIKLGHRSEAKDGINRTALREIKLLQELSHPNIIGLLDAFGHKSNISLVFDFMETDLEVIIKDNSLVLTPSHIKAYMLMTLQGLEYLHQHWILHRDLKPNNLLLDENGVLKLADFGLAKSFGSPNRAYTHQVVTRWYRAPELLFGARMYGVGVDMWAVGCILAELLLRVPFLPGDSDLDQLTRIFETLGTPTEEQWPDMCSLPDYVTFKSFPGIPLHHIFSAAGDDLLDLIQGLFLFNPCARITATQALKMKYFSNRPGPTPGCQLPRPNCPVETLKEQSNPALAIKRKRTEALEQGGLPKKLIF
notes: Fusion protein expressed in yeast L40 from the ADH constitutive promoter; also called Lex-Cdk7
B4: VP16-MAT1 (other)
chain: STAPPTDVSLGDELHLDGEDVAMAHADALDDFDLDMLGDGDSPGPGFTPHDSAPYGALDMADFEFEQMFTDALGIDEYGGMDDQGCPRCKTTKYRNPSLKLMVNVCGHTLCESCVDLLFVRGAGNCPECGTPLRKSNFRVQLFEDPTVDKEVEIRKKVLKIYNKREEDFPSLREYNDFLEEVEEIVFNLTNNVDLDNTKKKMEIYQKENKDVIQKNKLKLTREQEELEEALEVERQENEQRRLFIQKEEQLQQILKRKNKQAFLDELESSDLPVALLLAQHKDRSTQLEMQLEKPKPVKPVTFSTGIKMGQHISLAPIHKLEEALYEYQPLQIETYGPHVPELEMLGRLGYLNHVRAASPQDLAGGYTSSLACHRALQDAFSGLFWQPS
B5: VP16 fused with p44 (other)
chain: MDEEPERTKRWEGGYERTWEILKEDESGSLKATIEDILFKAKRKRVFEHHGQVRLGMMRHLYVVVDGSRTMEDQDLKPNRLTCTLKLLEYFVEEYFDQNPISQIGIIVTKSKRAEKLTELSGNPRKHITSLKKAVDMTCHGEPSLYNSLSIAMQTLKHMPGHTSREVLIIFSSLTTCDPSNIYDLIKTLKAAKIRVSVIGLSAEVRVCTVLARETGGTYHVILDESHYKELLTHHVSPPPASSSSECSLIRMGFPQHTIASLSDQDAKPSFSMAHLDGNTEPGLTLGGYFCPQCRAKYCELPVECKICGLTLVSAPHLARSYHHLFPLDAFQEIPLEEYNGERFCYGCQGELKDQHVYVCAVCQNVFCVDCDVFVHDSLHCCPGCIHKIPAPSGV
notes: as for B1

Legend:
LexA-Cdk7 [1] = biological target: B3; test: yeast three-hybrid (L40), LexA-Cdk7 with Cyclin H expressed; growth test and β-galactosidase test
VP16 fused with XPD = biological target: T1, VP16 fused with XPD (UniProt P18074 1-760); test: as above
T1 construct: One of the five TFIIH core sub-units put into pVP16 as specificity controls

VP16 fused with XPB = biological target: T2, VP16 fused with XPB (UniProt P19447 1-782); test: as above
T2 construct: One of the five TFIIH core sub-units put into pVP16 as specificity controls

LexA-Cdk7 [2] = biological target: B3; test: cell-based or functional assay

T2 sequence (P19447 whole entry, the tested form may be a part): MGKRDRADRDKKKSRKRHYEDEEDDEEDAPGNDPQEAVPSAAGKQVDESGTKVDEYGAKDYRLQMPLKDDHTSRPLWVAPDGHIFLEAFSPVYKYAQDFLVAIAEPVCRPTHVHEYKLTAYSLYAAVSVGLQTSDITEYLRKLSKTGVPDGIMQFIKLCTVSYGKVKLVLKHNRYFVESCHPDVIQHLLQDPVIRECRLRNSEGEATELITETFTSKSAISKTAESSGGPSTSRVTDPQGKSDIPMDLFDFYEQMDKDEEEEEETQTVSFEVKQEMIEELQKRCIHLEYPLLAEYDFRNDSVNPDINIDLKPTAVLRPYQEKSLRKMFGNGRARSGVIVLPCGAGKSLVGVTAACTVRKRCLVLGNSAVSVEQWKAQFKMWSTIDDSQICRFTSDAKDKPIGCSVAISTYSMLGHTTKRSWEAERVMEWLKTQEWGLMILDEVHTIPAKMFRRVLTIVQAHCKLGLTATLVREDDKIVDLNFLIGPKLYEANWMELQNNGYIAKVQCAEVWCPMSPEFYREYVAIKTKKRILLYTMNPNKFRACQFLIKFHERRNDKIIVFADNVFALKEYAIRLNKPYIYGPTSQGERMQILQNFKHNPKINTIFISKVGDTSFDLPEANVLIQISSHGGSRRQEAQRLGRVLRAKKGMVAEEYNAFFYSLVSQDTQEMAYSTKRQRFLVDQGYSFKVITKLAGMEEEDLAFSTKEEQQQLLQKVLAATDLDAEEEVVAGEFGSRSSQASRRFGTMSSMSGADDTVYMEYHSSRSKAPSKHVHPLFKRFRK

Binder | binding result (LexA-Cdk7 [1]) | other results
B1 | no binding | 
B2 | no binding | 
B3 |  | binding result (VP16 fused with XPD): no binding; binding result (VP16 fused with XPB): no binding
B4 |  | inhibition of the β-Gal activity by methionine (repression of Cyclin H) (LexA-Cdk7 [2]): > 6 fold
B5 | no binding | 
